Measurements reported in patent US7998940B2, “Aptamers to von Willebrand factor and their use as thrombotic disease therapeutics” (Archemix Corp., priority 2004, dated 2011).

How the values were obtained:
[1] = system: rabbit vWF A1 domain (SEQ ID NO 6); experiment: 3-point dot blot screen, rabbit vWF A1 domain; format: binding; conditions: 3-point dot blot screen, 20 nM rabbit vWF A1 domain; ratio of fraction of aptamer bound with target protein to fraction bound without protein
Method in brief: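 Rabbit vWF A1 domain binding was screened by dot blot using three conditions: no target protein, human vWF, and rabbit vWF A1 domain at 100 nM (20 nM in the screen run twice). Radiolabeled aptamer bound to nitrocellulose was quantified, and results are expressed as the ratio of bound fraction with protein to bound fraction without protein.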

full length human vWF = experiment: 3-point dot blot screen, full length human vWF; format: binding; conditions: 20 nM full length human vWF, ratio of fraction of aptamer bound with target protein to fraction bound without protein
Text: When a significant positive ratio of binding of DNA in the presence of human or rabbit vWF A1 domain versus in the absence of protein was seen, the pools were cloned using the TOPO TA cloning kit (Invitrogen Cat. #45-0641, Carlsbad, Calif.) according to the manufacturer's instructions. Round 7 and 11 pool templates were cloned and sequenced (218 total sequences), producing 146 unique clones within 12 sequence families of which sequences from six families show vWF target binding activity. All unique clones were assayed twice in a 3-point dot blot screen (no protein target control, 20 nM full length human vWF (Calbiochem Cat. #681300, La Jolla, Calif.), or 20 nM rabbit vWF A1 domain. The data is presented in the third and fourth columns of Table 17 below as the ratio of the fraction of the aptamer bound to the nitrocellulose in the presence of the target protein to the fraction of aptamer bound in the absence of the target protein.

Sequence of rabbit vWF A1 domain (SEQ ID NO 6) (as listed by the source): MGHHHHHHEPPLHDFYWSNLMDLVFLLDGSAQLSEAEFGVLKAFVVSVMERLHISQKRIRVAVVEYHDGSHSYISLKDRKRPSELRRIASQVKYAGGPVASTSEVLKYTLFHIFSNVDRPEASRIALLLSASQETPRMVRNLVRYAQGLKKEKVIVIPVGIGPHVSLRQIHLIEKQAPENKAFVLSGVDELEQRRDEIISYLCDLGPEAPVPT

B1: AMX237.F10: DNA SELEX 2 aptamer clone (nucleic acid)
DNA: CTACCTACGATCTGACTAGCGTGCAGTGCCCATTCCAGGCCGTGCGGTATCCTCCGTCACGCTTACTCTCATGTAGTTCC
modifications: DNA, backbone not given here
notes: DNA SELEX 2 aptamer clone
Screen Rabbit/No Protein [1]: 2.90
Screen- Human/No Protein (full length human vWF): 2.90

B2: AMX236.B3: DNA SELEX 2 aptamer clone (nucleic acid)
chain: CTACCTACGATCTGACTAGCCTTACCTATTCCCTTCTGCGGAATACGTCGAGTACTATGCTTACTCTCATGTAGTTCC
modifications: DNA, backbone not given here
notes: DNA SELEX 2 aptamer clone
Screen Rabbit/No Protein [1]: 1.41
Screen- Human/No Protein (full length human vWF): 1.54

B3: AMX236.G1: DNA SELEX 2 aptamer clone (nucleic acid)
chain: CTACCTACGATCTGACTAGCCTCAGATTGACTCCGGCTGACTTGTTTTAATCTTCTGAGTGCTTACTCTCATGTAGTTCC
modifications: DNA, backbone not given here
notes: DNA SELEX 2 aptamer clone
Screen Rabbit/No Protein [1]: 1.51
Screen- Human/No Protein (full length human vWF): 1.47

B4: AMX237.E2: DNA SELEX 2 aptamer clone (nucleic acid)
DNA: CTACCTACGATCTGACTAGCTCCAGTGTTTCATCTAATAACCGTGCGGTGCCTCCGTGAGCTTACTCTCATGTAGTTCC
modifications: DNA, backbone not given here
notes: DNA SELEX 2 aptamer clone
Screen Rabbit/No Protein [1]: 1.61
Screen- Human/No Protein (full length human vWF): 1.61

B5: AMX237.B4: DNA SELEX 2 aptamer clone (nucleic acid)
DNA: CTACCTACGATCTGACTAGCTCCAGTGTTTCATCCAATAACCGTGCGGTGCTTCCGTGAGCTTACTCTCATGTAGTTCC
modifications: DNA, backbone not given here
notes: DNA SELEX 2 aptamer clone
Screen Rabbit/No Protein [1]: 1.38
Screen- Human/No Protein (full length human vWF): 1.42

B6: AMX238.D5: DNA SELEX 2 aptamer clone (nucleic acid)
DNA: CTACCTACGATCTGACTAGCTCCAGTGTTTTATTCAATAACCGTGCGGTGTCTCCGTGAGCTTACTCTCATGTAGTTCC
modifications: DNA, backbone not given here
notes: DNA SELEX 2 aptamer clone
Screen Rabbit/No Protein [1]: 1.40
Screen- Human/No Protein (full length human vWF): 1.46

B7: AMX238.D8: DNA SELEX 2 aptamer clone (nucleic acid)
DNA: CTACCTACGATCTGACTAGCTCCAGTGTTTTATCCAACAACCGTGCGGTGCCTCCGTGAGCTTACTCTCATGTAGTTCC
modifications: DNA, backbone not given here
notes: DNA SELEX 2 aptamer clone
Screen Rabbit/No Protein [1]: 1.97
Screen- Human/No Protein (full length human vWF): 2.02

B8: AMX237.E9: DNA SELEX 2 aptamer clone (nucleic acid)
DNA: CTACCTACGATCTGACTAGCTCCAGTGTTTTGTCTAATAACCGTGCGGTGCCTCCGTGAGCTTACTCTCATGTAGTTCC
modifications: DNA, backbone not given here
notes: DNA SELEX 2 aptamer clone
Screen Rabbit/No Protein [1]: 2.06
Screen- Human/No Protein (full length human vWF): 2.13

B9: AMX237.D11: DNA SELEX 2 aptamer clone (nucleic acid)
DNA: CTACCTACGATCTGACTAGCTCCAGTGTTTTATATAATAACCGTGCGGTGCCTCCGTGATGCTTACTCTCATGTAGTTCC
modifications: DNA, backbone not given here
notes: DNA SELEX 2 aptamer clone
Screen Rabbit/No Protein [1]: 1.17
Screen- Human/No Protein (full length human vWF): 1.16

B10: AMX236.F8: DNA SELEX 2 aptamer clone (nucleic acid)
chain: CTACCTACGATCTGACTAGCTCCAGTGTTTTATCCAATAACCGTGCGGTGCCTCCGTGATGCTTACTCTCATGTAGTTCC
modifications: DNA, backbone not given here
notes: DNA SELEX 2 aptamer clone
Screen Rabbit/No Protein [1]: 1.13
Screen- Human/No Protein (full length human vWF): 1.14

B11: AMX238.G6: DNA SELEX 2 aptamer clone (nucleic acid)
DNA: CTACCTACGATCTGACTAGCTCCAGTGTTTTATCCAATAACCGTGCGGGGCCTCCGTGATGCTTACTCTCATGTAGTTCC
modifications: DNA, backbone not given here
notes: DNA SELEX 2 aptamer clone
Screen Rabbit/No Protein [1]: 1.22
Screen- Human/No Protein (full length human vWF): 1.25

B12: AMX237.C7: DNA SELEX 2 aptamer clone (nucleic acid)
DNA: CTACCTACGATCTGACTAGCTCCAGTGTTTTATTCAATAACCGTGCGGTGCCTCCGTGATGCTTACTCTCATGTAGTTCC
modifications: DNA, backbone not given here
notes: DNA SELEX 2 aptamer clone
Screen Rabbit/No Protein [1]: 1.16
Screen- Human/No Protein (full length human vWF): 1.15

B13: AMX237.F6: DNA SELEX 2 aptamer clone (nucleic acid)
DNA: CTACCTACGATCTGACTAGCTCCAGTGTTTTATCTAATAACCGTGCGGTGCCTCCGTGATGCTTACTCTCATGTAGTTCC
modifications: DNA, backbone not given here
notes: DNA SELEX 2 aptamer clone
Screen Rabbit/No Protein [1]: 1.21
Screen- Human/No Protein (full length human vWF): 1.20

B14: AMX237.F9: DNA SELEX 2 aptamer clone (nucleic acid)
DNA: CTACCTACGATCTGACTAGCTTGGTAGCGATTCTGTGGAGCTGCGGTTTGGTCGACGTCAGCTTACTCTCATGTAGTTCC
modifications: DNA, backbone not given here
notes: DNA SELEX 2 aptamer clone
Screen Rabbit/No Protein [1]: 2.31
Screen- Human/No Protein (full length human vWF): 2.21

B15: AMX237.C9: DNA SELEX 2 aptamer clone (nucleic acid)
DNA: CTACCTACGATCTGACTAGCTTGGTAGTGACTTTGTGGAGCTGCGGTTTGGTCGACGTCAGCTTACTCTCATGTAGTTCC
modifications: DNA, backbone not given here
notes: DNA SELEX 2 aptamer clone
Screen Rabbit/No Protein [1]: 2.19
Screen- Human/No Protein (full length human vWF): 2.05

B16: AMX237.F12: DNA SELEX 2 aptamer clone (nucleic acid)
DNA: CTACCTACGATCTGACTAGCTTGGTAGCGATTTTGTGGAGCTGCGGTTTGGTCGACGTCAGCTTACTCTCATGTAGTTCC
modifications: DNA, backbone not given here
notes: DNA SELEX 2 aptamer clone
Screen Rabbit/No Protein [1]: 2.08
Screen- Human/No Protein (full length human vWF): 1.95

B17: AMX238.E7: DNA SELEX 2 aptamer clone (nucleic acid)
DNA: CTACCTACGATCTGACTAGCGTGCAGTGCCTATTTTAGGCCGTGCGGTGCCTCCGTCACGCTTACTCTCATGTAGTTCC
modifications: DNA, backbone not given here
notes: DNA SELEX 2 aptamer clone
Screen Rabbit/No Protein [1]: 2.83
Screen- Human/No Protein (full length human vWF): 3.02

B18: AMX237.C11: DNA SELEX 2 aptamer clone (nucleic acid)
DNA: CTACCTACGATCTGACTAGCGTGCAGTGCCTATTCTAGGCCGTGCGGTGCCTCCGTCATGCTTACTCTCATGTAGTTCC
modifications: DNA, backbone not given here
notes: DNA SELEX 2 aptamer clone
Screen Rabbit/No Protein [1]: 1.95
Screen- Human/No Protein (full length human vWF): 2.04

B19: AMX238.F2: DNA SELEX 2 aptamer clone (nucleic acid)
DNA: CTACCTACGATCTGACTAGCATGCAGTGCCCATTCTAGGCCGTGCGGTGCCTCCGTCATGCTTACTCTCATGTAGTTCC
modifications: DNA, backbone not given here
notes: DNA SELEX 2 aptamer clone
Screen Rabbit/No Protein [1]: 2.76
Screen- Human/No Protein (full length human vWF): 2.84

B20: AMX238.F3: DNA SELEX 2 aptamer clone (nucleic acid)
DNA: CTACCTACGATCTGACTAGCGTGCAGTGCCTATTTTAGGTCGTGCGGGGCCTCCGTCACGCTTACTCTCATGTAGTTCC
modifications: DNA, backbone not given here
notes: DNA SELEX 2 aptamer clone
Screen Rabbit/No Protein [1]: 2.72
Screen- Human/No Protein (full length human vWF): 2.83

B21: AMX238.D9: DNA SELEX 2 aptamer clone (nucleic acid)
DNA: CTACCTACGATCTGACTAGCCAGTTCTGGGAAAAATCATTTTTTATTTCGATCGTATTTGCTTACTCTCATGTAGTTCC
modifications: DNA, backbone not given here
notes: DNA SELEX 2 aptamer clone
Screen Rabbit/No Protein [1]: 0.97
Screen- Human/No Protein (full length human vWF): 1.22

B22: AMX238.F7: DNA SELEX 2 aptamer clone (nucleic acid)
DNA: CTACCTACGATCTGACTAGCAAGGGGATTGGCTCCGGGTCTGGCGTGCTTGGCATCTTTGGCTTACTCTCATGTAGTTCC
modifications: DNA, backbone not given here
notes: DNA SELEX 2 aptamer clone
Screen Rabbit/No Protein [1]: 1.88
Screen- Human/No Protein (full length human vWF): 1.20
